Measured values: patent US5635384 (DowElanco, dated 1997)

Target: T1, maize αβ RIP β fragment (maize)
T1 chain: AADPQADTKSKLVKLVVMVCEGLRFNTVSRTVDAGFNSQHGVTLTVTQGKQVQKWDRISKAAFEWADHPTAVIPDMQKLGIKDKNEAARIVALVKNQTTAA
Experiment: reverse phase and ion exchange chromatography

B1: maize αβ RIP α fragment (other)
chain: KRIVPKFTEIFPVEDANYPYSAFIASVRKDVIKHCTDHKGIFQPVLPPEKKVPELWFYTELKTRTSSITLAIRMDNLYLVGFRTPGGVWWEFGKDGDTHLLGDNPRWLGFGGRYQDLIGNKGLETVTMGRAEMTRAVNDLAKKKK
binding result: binds
